Measured values: the supplement of paper PMC9170038

Columns and labels:
[1] = system: K4 kissing-loop RNA reporter; assay: apparent KD of K4 kissing-loop reporter; higher = weaker reporter binding; conditions: Eterna round: R107;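 further: bound reporter read as fluorescence of individual clusters on recovered sequencing chips by microscopy, with normalized cluster intensities fitted with a binding model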
Protocol: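 RNA-MaP round R107: designed RNA switches with theophylline, tryptophan, arginine or FMN aptamers are transcribed on-chip within common flanks. They are titrated with a labelled K4 kissing-loop RNA reporter in RNA-MaP buffer (100 mM Tris pH 7.5, 80 mM KCl, 4 mM MgCl2), without ligand or with the indicated ligand. Median apparent KD per design.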

[2] = system: MS2 coat protein; assay: apparent KD of MS2 coat protein; designed switch direction (-1 OFF switch, 1 ON switch): -1; higher = weaker reporter binding
Outline: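 The apparent KD reported per design is the median over clusters of curve fits to normalised cluster fluorescence. The RNA switches were transcribed on Illumina chips by stalled E. coli RNA polymerase. SNAP-549-labelled MS2 coat protein was titrated from 0.7 or 1.5 nM, doubling up to 3 µM, in Tris-HCl pH 7.5 buffer containing KCl, MgCl2, BSA, DTT, tRNA and Tween-20, with no input, 200 uM small-molecule ligand, or an oligonucleotide input.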

[3] = input ligand: theophylline 20 uM
[4] = input ligand: tryptophan 2.4 mM
[5] = input ligand: microRNA oligo, concentration not stated

Sequence | apparent KD of K4 kissing-loop reporter ([1]; input ligand: FMN 200 uM) [µM] | apparent KD of K4 kissing-loop reporter ([1]; input ligand: arginine 13.2 mM) [µM] | apparent KD of K4 kissing-loop reporter ([1]; input ligand: none) [µM] | apparent KD of K4 kissing-loop reporter [1, 3] [µM] | apparent KD of K4 kissing-loop reporter [1, 4] [µM] | apparent KD of MS2 coat protein ([2]; Eterna round: R95, input ligand: microRNA oligo, concentration not stated) [µM] | apparent KD of MS2 coat protein ([2]; input ligand: FMN 200 uM) [µM] | apparent KD of MS2 coat protein [2, 5] [µM] | apparent KD of MS2 coat protein ([2]; input ligand: none) [µM]
AAAACCAAAAGCGAUACCAGCGCGGAGUGAUGUUCCGAGGAUCGGAGUGAUGUUCCGAAGCGCCCUUGGCAGCGCAAAAGCGCAA [Exclusion Theophylline B GF 7] | 0.207 | 0.139 | 0.171 | 0.196 | 0.164 |  |  |  | 
AAAAGAAGAAGUGAUACCAGACAAGCAGUGAUGUUGCGCCAAAGUGAGUGAUGUUCACCAGUCCCUUGGCAGCACAUGCCAAAAG [Same State Theophylline B GF 5] | 0.52 | 0.927 | 0.668 | 0.839 | 0.933 |  |  |  | 
AAAAUAAACCAGUGAUGUUGGUGUCUAGAUACCAGCGAUAAUAAUCGCCCUUGGCAGCUACGGACGUACAAAAUAAGUACGUCCU [MatMod 10 - Jieux - Same State - Theophylline A] | 0.543 | 0.375 | 0.454 | 0.485 | 0.46 |  |  |  | 
AAAAUAAACCAGUGAUGUUGGUGUGUAGAUACCAGCGACGAAAGUCGCCCUUGGCAGCUGUGGACGUACAAAAUAAGUACGUCCU [MatMod 23 - Jieux - Same State - Theophylline A] | 0.315 | 0.31 | 0.35 | 0.325 | 0.28 |  |  |  | 
AAAAUAAAGGAGUGAUGUUCCAUAUGUGAUACCAGCCACGAAAGUGGCCCUUGGCAGCACUGCCAAGUGGACGAAAACGUCCACA [#OpenEnded 5 #StaticStem #K4Early] | 0.125 | 0.162 | 0.141 | 0.16 | 0.113 |  |  |  | 
AAAAUAAAUAGCAGUCACGGAGUGAUGUUCCGAGGACCGGUACGGCCGCCACUCGACCAGACAAAGUCUGGAUGGCGAGACUGCA [#SwitchBubble 19 #K4Early] | 0.2 | 0.29 | 0.342 | 0.392 | 0.34 |  |  |  | 
AAAAUAAAUAGCAGUCACGGAGUGAUGUUCCGAGGACCGGUACGGCCGCCACUCGACCAUCAUAAGAUGGAAUGGCGAGACUGCA [#SwitchBubble 21 #K4Early] | 0.134 | 0.135 | 0.137 | 0.138 | 0.354 |  |  |  | 
AAAAUAAUCCAGUGAUGUUGGUAUCCAGAUACCAGCCACGAAAGUGGCCCUUGGCAGCUGUGGACGUACAAAAUAAGUACGUCCU [#OpenEnded 8 #StaticStem #K4Early] | 0.534 | 0.293 | 0.729 | 0.79 | 0.651 |  |  |  | 
AAACAACGUGACGAUACCAGCUUACUCGGCAAGCCAGUGAUGUUGGUGAAAAGGAGUCAAAGCCCUUGGCAGCGUCGAAGGUUUG [Leteon] | 0.31 | 0.268 | 0.334 | 0.138 | 0.268 |  |  |  | 
AAACAGCACUGGGAGUGAUGUUCUCAGUGACGAGGACCGGUACGGCCGCCACUCGCGAGAGAACUAGUCUAGACUUGACUGCAUA [Excl Tryptophan A V15] | 0.181 | 0.138 | 0.145 | 0.149 | 0.205 |  |  |  | 
AAACAUAAGUCUGAUACCAGCCUGGGAGAAGUGAUGUUUCUCGGUGCAUAACGCCUAUAAGGCCCUUGGCAGCAGCAUGCGCUUC [theeternabot_sameState_KL_Theo_B_10] | 0.547 | 0.485 | 0.569 | 0.471 | 0.516 |  |  |  | 
AAACAUCACUGGGAGUGAUGUUCUCAGUGACGAGGACCGGUACGGCCGCCACUCGCGAGAGAUAUAAUUAAGUAAUGACAUCAUU [Excl Tryptophan A V6] | 0.26 | 0.267 | 0.274 | 0.341 | 0.327 |  |  |  | 
AAACAUUGGUCGGAUACCAGUUAGACCGAUAAGGUCAAAACUGGAGUGAUGUUCCCAAAUAACCCUUGGCAGCCGACCGAUGAAA [MAT - Same State Theophlline B - Mod of Eli - D11] | 0.193 | 0.121 | 0.167 | 0.205 | 0.221 |  |  |  | 
AAAGAAGUAUACUUCAAGAGGUAUGCUGAUACCAGAGUCAAUUGACUCCCUUGGCAGCGGAUCGAGUGAUGUUCGUAACCUCAAA [AK3 SS Theophylline A] | 0.118 | 0.178 | 0.153 | 0.192 | 0.117 |  |  |  | 
AAAGACUGACUGCAAUUAGCAGUCAGUCAACGAGGACCGGUACGGCCGCCACUCGGGUCCUAGAGUGAUGUUCUAAUAAUAUAAU [Default title] | 0.279 | 0.367 | 0.432 | 0.466 | 0.167 |  |  |  | 
AAAUAAAGCAGUCAGCCAGUGAUGUUGGAAGGAGCGUGCGAAAGCACAGGUAGGUCGCCAAAACCUAAUACUGGCUGCUAAAUAA [#SwitchBubble 1 #K4Early] | 0.979 | 0.643 | 0.773 | 0.753 | 0.542 |  |  |  | 
AAAUAACAGGCAGGAUAUGCUUAGUAAUAAGGCCAUAUAUACGUAUAGAGUGAUGUUUUGUACAAAGCAGAAGGGCUAAAUCCAU [FMN B Excl V1] | 0.154 | 0.151 | 0.16 | 0.105 | 0.167 |  |  |  | 
AAAUCGUUCAGAAGGAGCGUGGAUUAUUCUUAAAUAUUUAUUACGAGUGAUGUUCGUAAUUCACAGGUAGGUCGCUGAUCGAUAA [JR_ExcArginiB_Sub003] | 0.102 | 0.137 | 0.106 | 0.121 | 0.105 |  |  |  | 
AAAUUCUUUUUUUUAUAUAACGAUUCAGAAGGAGCGAGGUAGAACUCAGGUAGGUCGCUGAAUAUAAGACUAGUGAUGUUAGUAA [#01 K4 Arginine A Same State] | 0.175 | 0.193 | 0.224 | 0.238 | 0.156 |  |  |  | 

Sequence | apparent KD of K4 kissing-loop reporter ([1]; input ligand: FMN 200 uM) [µM] | apparent KD of K4 kissing-loop reporter ([1]; input ligand: arginine 13.2 mM) [µM] | apparent KD of K4 kissing-loop reporter ([1]; input ligand: none) [µM] | apparent KD of K4 kissing-loop reporter [1, 3] [µM] | apparent KD of K4 kissing-loop reporter [1, 4] [µM] | apparent KD of MS2 coat protein ([2]; Eterna round: R95, input ligand: microRNA oligo, concentration not stated) [µM] | apparent KD of MS2 coat protein ([2]; input ligand: FMN 200 uM) [µM] | apparent KD of MS2 coat protein [2, 5] [µM] | apparent KD of MS2 coat protein ([2]; input ligand: none) [µM]
AAAUUGUUUAGAGGAUAUUCUUUAUUCGACAUAACCUUCUAUAAGGUGCAGUGAUGUUGCAAUAUAGGAGAAGGCUGAGCGAUAA [Exclusion FMN B Gf 14] | 0.311 | 0.177 | 0.217 | 0.196 | 0.178 |  |  |  | 
AACACUCUGGGAGUGAUGUUCUCAAAUAACCGAGGACCGGUACGGCCGCCACUCGGAAAAGAGUGAGUCCUACGAAAAGUAGGAC [Omei inspired 3] | 0.225 | 0.258 | 0.235 | 0.264 | 0.152 |  |  |  | 
AACGCUCAAUAGAGAGUGAUGUUCUCUAUACGAGGACCGGUACGGCCGCCACUCGAAUGUAUAGCGAAACGCUAUACACAGUGGU [Tryp A SS t2] | 0.155 | 0.147 | 0.152 | 0.146 | 0.15 |  |  |  | 
AACGCUGCCUGAGGAUAUAGAAACGAGUGAUGUUCGUGGAACGAGACCAGUGAUGUUGGCCUAUUUCUAGAAGGCAGGCAACCGC [Exclusion FMN B GF 1] | 0.155 | 0.121 | 0.148 | 0.123 | 0.125 |  |  |  | 
AACUCUCAGACACUUGAGUGAUGUUCGGGCCGAGGACCGGUACGGCCGCCACUCGGGUCUGAGAGAGGUUAUCAAAGAUAGCCAA [Omei KL Tryp A SS A v9] | 0.303 | 0.0873 | 0.153 | 0.141 | 0.164 |  |  |  | 
AACUCUCAGACAUCUGAGUGAUGUUCAGGCCGAGGACCGGUACGGCCGCCACUCGGGUCUGAGAGAGGUUAUCAAAGAUAGCCAA [Omei KL Tryp A SS A v4] | 0.57 | 0.356 | 0.468 | 0.39 | 0.54 |  |  |  | 
AACUCUCAGAUACUUGAGUGAUGUUCAGGCCGAGGACCGGUACGGCCGCCACUCGGGUCUGAGAGAGGUUAUCAAAGAUAGCCAA [Omei KL Tryp A SS A v10] | 0.266 | 0.197 | 0.257 | 0.329 | 0.236 |  |  |  | 
AACUCUCAGGCACCUGAGUGAUGUUCAGGCCGAGGACCGGUACGGCCGCCACUCGGGCCUGAGAGAGGUUAUCAAAGAUAGCCAA [Omei KL Tryp A SS A v2] | 0.561 | 0.366 | 0.528 | 0.277 | 0.449 |  |  |  | 
AACUGUUGGGAAGGAUAUUAUGGUGGCUAAAUCCAGUGAUGUUGGAAAUCGGUACUCGCCCACCUUUAAGAAGGUCCGUGAAAGA [theeternabot_sameState_KL_FMN_B_6] | 0.152 | 0.164 | 0.151 | 0.199 | 0.13 |  |  |  | 
AAGAGUUGACGAAAAGUCAACUCACGAGAAGGAGCGCACGAAAGUGCAGGUAGGUCGCUCAGUCCAGUGAUGUUGGAACAUAAAA [#OpenEnded 7] | 0.0662 | 0.114 | 0.0961 | 0.11 | 0.0733 |  |  |  | 
AAGCAGUCCCUUGUUGUCAUCGAAGAUGAACGAGGACCGGUACGGCCGCCACUCGGAGUGAUGUUCCGAUGGCUGCAAAAUAAAA [MatMod 21 - Jieux - Exclusion - Tryptophan A] | 0.101 | 0.0967 | 0.105 | 0.101 | 0.108 |  |  |  | 
AAGCCAGUGAUGUUGGCAAAAUAAACUGAAGGAGCGCGUGAAAACGCAGGUAGGUCGCAGAACCUUGCCAACUAACACGAAAGUG [Ex Arginine A K4 19] | 0.268 | 0.246 | 0.305 | 0.387 | 0.287 |  |  |  | 
AAGCCGGUUGCGGCCGCCACUUUUGCGGACCCGGUGCAGUGAUGUUGCGCAUCGCGGGUUGCUUAAAGGACCGGGCACCUCUAAC [theeternabot_sameState_KL_Trp_B_7] | 0.418 | 0.359 | 0.401 | 0.363 | 0.327 |  |  |  | 
AAGCUCAGCGUGACUCGAUAAGAGUCACAACGAGGACCGGUACGGCCGCCACUCGAAAUAAGAGAGUGAUGUUCUCGCUGAGCAA [#SwitchBubble 6 #StaticStem #K4Late] | 0.631 | 0.344 | 0.62 | 0.824 | 0.548 |  |  |  | 
AAGGCCACGAGAAGGAGCGUGCUAUGGAGUGAUGUUCCAAUGUAGACCUAAGGUCUACAAGCACAGGUAGGUCGCUCGUGGUCAA [Omei KL Arginine B SS A v2] | 0.102 | 0.0969 | 0.109 | 0.1 | 0.103 |  |  |  | 
AAGGCCGCGCGGUGAUGUUUCAUCGCCGCCCGAGGACCGGUACGGCCGCCACUCGGAUAUAUCGCAGUGAUGUUGCUCUAUAUCA [Exclusion - Tryptophan A] | 0.16 | 0.151 | 0.155 | 0.167 | 0.203 |  |  |  | 
UUUUUGUGAGGAUAUGCAAUAUCUUCUAUUUAUUAUUAAUUGCAGAAGGCACAUGAGGAUCACCCAUGUAUUUU [Ex4 - 3 - 36] (puzzle: Exclusion 4) |  |  |  |  |  | 0.0205 |  |  | 
UUUUUUGGGCAAGGAUAUCCUGUGCGGUUCCGGCUCGUGUCUGUCACAUGAGGAUCACCCAUGUGGGAGAAGGUGCCUGCGGUU [Design 84] (Eterna round: R96, puzzle: Exclusion NG 2) |  |  |  |  |  |  | 0.0151 | 0.0108 | 0.0154
UUUUUUGGGCAAGGAUAUCCUGUGCGGUUCCGGCUCGUGUCUGUUACAUGAGGAUCACCCAUGUGGGAGAAGGUGCCUGCGGUU [Design 85] (Eterna round: R96, puzzle: Exclusion NG 2) |  |  |  |  |  |  | 0.172 | 0.0311 | 0.0349
